# Measurements as given in the supplement of paper PMC11316812.
# ± gives the standard deviation of the averaged measurements.
# How the values were obtained:
# hTERT-HMEC = experiment: percentage of EdU-negative (G0-arrested) nuclei per well, 72 h; higher = more G0 arrest; conditions: reference: sequence is the full UniProt precursor, the tested protein was the secreted form or ectodomain
# MCF7 = experiment: as above; conditions: reference: sequence is the full UniProt precursor, the tested protein was the secreted form or ectodomain
# [1] = protein concentration 0.0225 µM
# [2] = protein concentration 0.03125 µM
# [3] = protein concentration 0.3125 µM
# [4] = protein concentration 0.02535 µM
# [5] = protein concentration 0.2535 µM
# [6] = protein concentration 0.0260325 µM
# [7] = protein concentration 0.260325 µM
# 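Note: secreted proteins added to cultured cells, EdU pulse at the end, nuclei found by Hoechst imaging, EdU status from nuclear versus surrounding ring intensity ratio, PBS as neutral control.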
Sequence,percentage of EdU-negative (hTERT-HMEC; [1]) [%],percentage of EdU-negative (hTERT-HMEC; protein concentration 0.225 µM) [%],percentage of EdU-negative (MCF7; [1]) [%],percentage of EdU-negative (MCF7; protein concentration 0.225 µM) [%],further results
MGAYARASGVCARGCLDSAGPWTMSRALRPPLPPLCFFLLLLAAAGARAGGYETCPTVQPNMLNVHLLPHTHDDVGWLKTVDQYFYGIKNDIQHAGVQYILDSVISALLADPTRRFIYVEIAFFSRWWHQQTNATQEVVRDLVRQGRLEFANGGWVMNDEAATHYGAIVDQMTLGLRFLEDTFGNDGRPRVAWHIDPFGHSREQASLFAQMGFDGFFFGRLDYQDKWVRMQKLEMEQVWRASTSLKPPTADLFTGVLPNGYNPPRNLCWDVLCVDQPLVEDPRSPEYNAKELVDYFLNVATAQGRYYRTNHTVMTMGSDFQYENANMWFKNLDKLIRLVNAQQAKGSSVHVLYSTPACYLWELNKANLTWSVKHDDFFPYADGPHQFWTGYFSSRPALKRYERLSYNFLQVCNQLEALVGLAANVGPYGSGDSAPLNEAMAVLQHHDAVSGTSRQHVANDYARQLAAGWGPCEVLLSNALARLRGFKDHFTFCQQLNISICPLSQTAARFQVIVYNPLGRKVNWMVRLPVSEGVFVVKDPNGRTVPSDVVIFPSSDSQAHPPELLFSASLPALGFSTYSVAQVPRWKPQARAPQPIPRRSWSPALTIENEHIRATFDPDTGLLMEIMNMNQQLLLPVRQTFFWYNASIGDNESDQASGAYIFRPNQQKPLPVSRWAQIHLVKTPLVQEVHQNFSAWCSQVVRLYPGQRHLELEWSVGPIPVGDTWGKEVISRFDTPLETKGRFYTDSNGREILERRRDYRPTWKLNQTEPVAGNYYPVNTRIYITDGNMQLTVLTDRSQGGSSLRDGSLELMVHRRLLKDDGRGVSEPLMENGSGAWVRGRHLVLLDTAQAAAAGHRLLAEQEVLAPQVVLAPGGGAAYNLGAPPRTQFSGLRRDLPPSVHLLTLASWGPEMVLLRLEHQFAVGEDSGRNLSAPVTLNLRDLFSTFTITRLQETTLVANQLREAASRLKWTTNTGPTPHQTPYQLDPANITLEPMEIRTFLASVQWKEVDG,4.43 ± 0.26,5.51 ± 0.44,24.7 ± 1.5,24.7 ± 1.2,–
MGCLLFLLLWALLQAWGSAEVPQRLFPLRCLQISSFANSSWTRTDGLAWLGELQTHSWSNDSDTVRSLKPWSQGTFSDQQWETLQHIFRVYRSSFTRDVKEFAKMLRLSYPLELQVSAGCEVHPGNASNNFFHVAFQGKDILSFQGTSWEPTQEAPLWVNLAIQVLNQDKWTRETVQWLLNGTCPQFVSGLLESGKSELKKQVKPKAWLSRGPSPGPGRLLLVCHVSGFYPKPVWVKWMRGEQEQQGTQPGDILPNADETWYLRATLDVVAGEAAGLSCRVKHSSLEGQDIVLYWGGSYTSMGLIALAVLACLLFLLIVGFTSRFKRQTSYQGVL,4.97 ± 0.24,5.04 ± 0.17,23.9 ± 2.6,27.61 ± 0.11,–
MGCRAASGLLPGVAVVLLLLLQSTQSVYIQYQGFRVQLESMKKLSDLEAQWAPSPRLQAQSLLPAVCHHPALPQDLQPVCASQEASSIFKTLRTIANDDCELCVNVACTGCL,4.91 ± 1.5,9.77 ± 1.3,27.3 ± 2.2,27.8 ± 1.8,–
MGCWGQLLVWFGAAGAILCSSPGSQETFLRSSPLPLASPSPRDPKVSAPPSILEPASPLNSPGTEGSWLFSTCGASGRHGPTQTQCDGAYAGTSVVVTVGAAGQLRGVQLWRVPGPGQYLISAYGAAGGKGAKNHLSRAHGVFVSAIFSLGLGESLYILVGQQGEDACPGGSPESQLVCLGESRAVEEHAAMDGSEGVPGSRRWAGGGGGGGGATYVFRVRAGELEPLLVAAGGGGRAYLRPRDRGRTQASPEKLENRSEAPGSGGRGGAAGGGGGWTSRAPSPQAGRSLQEGAEGGQGCSEAWATLGWAAAGGFGGGGGACTAGGGGGGYRGGDASETDNLWADGEDGVSFIHPSSELFLQPLAVTENHGEVEIRRHLNCSHCPLRDCQWQAELQLAECLCPEGMELAVDNVTCMDLHKPPGPLVLMVAVVATSTLSLLMVCGVLILVKQKKWQGLQEMRLPSPELELSKLRTSAIRTAPNPYYCQVGLGPAQSWPLPPGVTEVSPANVTLLRALGHGAFGEVYEGLVIGLPGDSSPLQVAIKTLPELCSPQDELDFLMEALIISKFRHQNIVRCVGLSLRATPRLILLELMSGGDMKSFLRHSRPHLGQPSPLVMRDLLQLAQDIAQGCHYLEENHFIHRDIAARNCLLSCAGPSRVAKIGDFGMARDIYRASYYRRGDRALLPVKWMPPEAFLEGIFTSKTDSWSFGVLLWEIFSLGYMPYPGRTNQEVLDFVVGGGRMDPPRGCPGPVYRIMTQCWQHEPELRPSFASILERLQYCTQDPDVLNSLLPMELGPTPEEEGTSGLGNRSLECLRPPQPQELSPEKLKSWGGSPLGPWLSSGLKPLKSRGLQPQNLWNPTYRS,5.75 ± 1.3,10.5 ± 0.56,26.78 ± 0.18,28.3 ± 2.3,–
MGFNLTFHLSYKFRLLLLLTLCLTVVGWATSNYFVGAIQEIPKAKEFMANFHKTLILGKGKTLTNEASTKKVELDNCPSVSPYLRGQSKLIFKPDLTLEEVQAENPKVSRGRYRPQECKALQRVAILVPHRNREKHLMYLLEHLHPFLQRQQLDYGIYVIHQAEGKKFNRAKLLNVGYLEALKEENWDCFIFHDVDLVPENDFNLYKCEEHPKHLVVGRNSTGYRLRYSGYFGGVTALSREQFFKVNGFSNNYWGWGGEDDDLRLRVELQRMKISRPLPEVGKYTMVFHTRDKGNEVNAERMKLLHQVSRVWRTDGLSSCSYKLVSVEHNPLYINITVDFWFGA,5.14 ± 0.69,6.72 ± 0.53,25.1 ± 1.2,27.9 ± 0.9,–
MGFQKFSPFLALSILVLLQAGSLHAAPFRSALESSPADPATLSEDEARLLLAALVQDYVQMKASELEQEQEREGSSLDSPRSKRCGNLSTCMLGTYTQDFNKFHTFPQTAIGVGAPGKKRDMSSDLERDHRPHVSMPQNAN,–,–,–,–,percentage of EdU-negative (hTERT-HMEC; [2]): 5.19 ± 0.42%; percentage of EdU-negative (hTERT-HMEC; [3]): 5.1 ± 0.19%; percentage of EdU-negative (MCF7; [2]): 26.7 ± 2.5%; percentage of EdU-negative (MCF7; [3]): 25.55 ± 0.19%
MGFWILAILTILMYSTAAKFSKQSWGLENEALIVRCPRQGKPSYTVDWYYSQTNKSIPTQERNRVFASGQLLKFLPAAVADSGIYTCIVRSPTFNRTGYANVTIYKKQSDCNVPDYLMYSTVSGSEKNSKIYCPTIDLYNWTAPLEWFKNCQALQGSRYRAHKSFLVIDNVMTEDAGDYTCKFIHNENGANYSVTATRSFTVKDEQGFSLFPVIGAPAQNEIKEVEIGKNANLTCSACFGKGTQFLAAVLWQLNGTKITDFGEPRIQQEEGQNQSFSNGLACLDMVLRIADVKEEDLLLQYDCLALNLHGLRRHTVRLSRKNPIDHHSIYCIIAVCSVFLMLINVLVIILKMFWIEATLLWRDIAKPYKTRNDGKLYDAYVVYPRNYKSSTDGASRVEHFVHQILPDVLENKCGYTLCIYGRDMLPGEDVVTAVETNIRKSRRHIFILTPQITHNKEFAYEQEVALHCALIQNDAKVILIEMEALSELDMLQAEALQDSLQHLMKVQGTIKWREDHIANKRSLNSKFWKHVRYQMPVPSKIPRKASSLTPLAAQKQ,–,–,–,–,percentage of EdU-negative (hTERT-HMEC; [4]): 5.463 ± 0.046%; percentage of EdU-negative (hTERT-HMEC; [5]): 5.2 ± 0.66%; percentage of EdU-negative (MCF7; [4]): 23.7 ± 0.79%; percentage of EdU-negative (MCF7; [5]): 25.9 ± 0.45%
MGGPRALLAALWALEAAGTAALRIGAFNIQSFGDSKVSDPACGSIIAKILAGYDLALVQEVRDPDLSAVSALMEQINSVSEHEYSFVSSQPLGRDQYKEMYLFVYRKDAVSVVDTYLYPDPEDVFSREPFVVKFSAPGTGERAPPLPSRRALTPPPLPAAAQNLVLIPLHAAPHQAVAEIDALYDVYLDVIDKWGTDDMLFLGDFNADCSYVRAQDWAAIRLRSSEVFKWLIPDSADTTVGNSDCAYDRIVACGARLRRSLKPQSATVHDFQEEFGLDQTQALAISDHFPVEVTLKFHR,–,–,–,–,percentage of EdU-negative (hTERT-HMEC; [6]): 4.97 ± 0.32%; percentage of EdU-negative (hTERT-HMEC; [7]): 5.04 ± 0.098%; percentage of EdU-negative (MCF7; [6]): 25.9 ± 0.85%; percentage of EdU-negative (MCF7; [7]): 23.9 ± 1.7%
MGGRVFLAFCVWLTLPGAETQDSRGCARWCPQNSSCVNATACRCNPGFSSFSEIITTPTETCDDINECATPSKVSCGKFSDCWNTEGSYDCVCSPGYEPVSGAKTFKNESENTCQDVDECQQNPRLCKSYGTCVNTLGSYTCQCLPGFKFIPEDPKVCTDVNECTSGQNPCHSSTHCLNNVGSYQCRCRPGWQPIPGSPNGPNNTVCEDVDECSSGQHQCDSSTVCFNTVGSYSCRCRPGWKPRHGIPNNQKDTVCEDMTFSTWTPPPGVHSQTLSRFFDKVQDLGRDSKTSSAEVTIQNVIKLVDELMEAPGDVEALAPPVRHLIATQLLSNLEDIMRILAKSLPKGPFTYISPSNTELTLMIQERGDKNVTMGQSSARMKLNWAVAAGAEDPGPAVAGILSIQNMTTLLANASLNLHSKKQAELEEIYESSIRGVQLRRLSAVNSIFLSHNNTKELNSPILFAFSHLESSDGEAGRDPPAKDVMPGPRQELLCAFWKSDSDRGGHWATEGCQVLGSKNGSTTCQCSHLSSFAILMAHYDVEDWKLTLITRVGLALSLFCLLLCILTFLLVRPIQGSRTTIHLHLCICLFVGSTIFLAGIENEGGQVGLRCRLVAGLLHYCFLAAFCWMSLEGLELYFLVVRVFQGQGLSTRWLCLIGYGVPLLIVGVSAAIYSKGYGRPRYCWLDFEQGFLWSFLGPVTFIILCNAVIFVTTVWKLTQKFSEINPDMKKLKKARALTITAIAQLFLLGCTWVFGLFIFDDRSLVLTYVFTILNCLQGAFLYLLHCLLNKKVREEYRKWACLVAGGSKYSEFTSTTSGTGHNQTRALRASESGI,5.19 ± 0.7,5.66 ± 0.12,24.7 ± 1.8,26.3 ± 3.2,–
MGHLSAPLHRVRVPWQGLLLTASLLTFWNPPTTAQLTTESMPFNVAEGKEVLLLVHNLPQQLFGYSWYKGERVDGNRQIVGYAIGTQQATPGPANSGRETIYPNASLLIQNVTQNDTGFYTLQVIKSDLVNEEATGQFHVYPELPKPSISSNNSNPVEDKDAVAFTCEPETQDTTYLWWINNQSLPVSPRLQLSNGNRTLTLLSVTRNDTGPYECEIQNPVSANRSDPVTLNVTYGPDTPTISPSDTYYRPGANLSLSCYAASNPPAQYSWLINGTFQQSTQELFIPNITVNNSGSYTCHANNSVTGCNRTTVKTIIVTELSPVVAKPQIKASKTTVTGDKDSVNLTCSTNDTGISIRWFFKNQSLPSSERMKLSQGNTTLSINPVKREDAGTYWCEVFNPISKNQSDPIMLNVNYNALPQENGLSPGAIAGIVIGVVALVALIAVALACFLHFGKTGRASDQRDLTEHKPSVSNHTQDHSNDPPNKMNEVTYSTLNFEAQQPTQPTSASPSLTATEIIYSEVKKQ,5.04 ± 1.4,7.07 ± 0.44,24.7 ± 1.3,26.6 ± 0.95,–
MGHPPLLPLLLLLHTCVPASWGLRCMQCKTNGDCRVEECALGQDLCRTTIVRLWEEGEELELVEKSCTHSEKTNRTLSYRTGLKITSLTEVVCGLDLCNQGNSGRAVTYSRSRYLECISCGSSDMSCERGRHQSLQCRSPEEQCLDVVTHWIQEGEEGRPKDDRHLRGCGYLPGCPGSNGFHNNDTFHFLKCCNTTKCNEGPILELENLPQNGRQCYSCKGNSTHGCSSEETFLIDCRGPMNQCLVATGTHEPKNQSYMVRGCATASMCQHAHLGDAFSMNHIDVSCCTKSGCNHPDLDVQYRSGAAPQPGPAHLSLTITLLMTARLWGGTLLWT,–,–,–,–,percentage of EdU-negative (hTERT-HMEC; [2]): 5.81 ± 0.25%; percentage of EdU-negative (hTERT-HMEC; [3]): 5.79 ± 0.076%; percentage of EdU-negative (MCF7; [2]): 23.5 ± 1.9%; percentage of EdU-negative (MCF7; [3]): 21 ± 1.2%
MGHRFLRGLLTLLLPPPPLYTRHRMLGPESVPPPKRSRSKLMAPPRIGTHNGTFHCDEALACALLRLLPEYRDAEIVRTRDPEKLASCDIVVDVGGEYDPRRHRYDHHQRSFTETMSSLSPGKPWQTKLSSAGLIYLHFGHKLLAQLLGTSEEDSMVGTLYDKMYENFVEEVDAVDNGISQWAEGEPRYALTTTLSARVARLNPTWNHPDQDTEAGFKRAMDLVQEEFLQRLDFYQHSWLPARALVEEALAQRFQVDPSGEIVELAKGACPWKEHLYHLESGLSPPVAIFFVIYTDQAGQWRIQCVPKEPHSFQSRLPLPEPWRGLRDEALDQVSGIPGCIFVHASGFIGGHRTREGALSMARATLAQRSYLPQIS [Q9HB07],4.42 ± 0.079,11 ± 1.7,26.7 ± 1.3,27.2 ± 0.95,–
